Measured values from patent US7968692B2, “Elongase genes and uses thereof” (Abbott Laboratories, priority 1998, dated 2011).

B1: GLELO: M. alpina GLA elongase, 318 amino acids, encoded by GLELO cDNA (SEQ ID NO:2) in plasmid pRPB2 (protein, listed as Mortierella alpina)
chain: MESIAPFLPSKMPQDLFMDLATAIGVRAAPYVDPLEAALVAQAEKYIPTIVHHTRGFLVAVESPLARELPLMNPFHVLLIVLAYLVTVFVGMQIMKNFERFEVKTFSLLHNFCLVSISAYMCGGILYEAYQANYGLFENAADHTFKGLPMAKMIWLFYFSKIMEFVDTMIMVLKKNNRQISFLHVYHHSSIFTIWWLVTFVAPNGEAYFSAALNSFIHVIMYGYYFLSALGFKQVSFIKFYITRSQMTQFCMMSVQSSWDMYAMKVLGRPGYPFFITALLWFYMWTMLGLFYNFYRKNAKLAKQAKADAAKEKARKLQ
B2: CEELO1: C. elegans elongase (SEQ ID NO:4), 288 amino acids, expressed in yeast from pRET-22 (protein)
chain: MAQHPLVQRLLDVKFDTKRFVAIATHGPKNFPDAEGRKFFADHFDVTIQASILYMVVVFGTKWFMRNRQPFQLTIPLNIWNFILAAFSIAGAVKMTPEFFGTIANKGIVASYCKVFDFTKGENGYWVWLFMASKLFELVDTIFLVLRKRPLMFLHWYHHILTMIYAWYSHPLTPGFNRYGIYLNFVVHAFMYSYYFLRSMKIRVPGFIAQAITSLQIVQFIISCAVLAHLGYLMHFTNANCDFEPSVFKLAVFMDTTYLALFVNFFLQSYVLRGGKDKYKAVPKKKNN
modifications: Caenorhabditis elegans

Key:
Assay type in all cases: cell-based, Saccharomyces cerevisiae
[1] = test system: S. cerevisiae 334; assay: GLA elongase (GLELO) activity and substrate specificity in yeast
Description: To further confirm the activity of the GLA elongase encoded by the pRPB2 recombinant plasmid, elongase activity screening was repeated on the yeast clone SC334 containing pRPB2 plasmid. This experiment was also conducted to assure consistent lipid extraction and to detect the activity of GLA elongase by averaging four independent experiments. The S. cerevisiae 334 glycerol stock containing pRPB2 was plated onto minimal media agar plates lacking uracil. Individual colonies were randomly picked and grown in minimal medium lacking uracil, as described in Example VIII. The four independent cultures were combined, and a 5 ml aliquot was used as an inoculum for four separate 50 ml cultures. The cultures were then grown in the presence of GLA and were subjected to fatty acid analysis along with a negative control of S. cerevisiae 334 containing pYES2, as described in Example VIII. The GLA elongase activity of each of the four independent samples of 334(pRPB2) appeared to be consistent with an average conversion of 62% GLA to DGLA.
To analyze the substrate specificity of the GLA elongase, the culture of 334(pRPB2) was tested with different fatty acid substrates besides GLA (e.g., SA(18:0), OA(18:1), LA(18:2n-6), AA(20:4n-6), ADA(22:4n-6), ALA(18:3n-3), STA(18:4n-3), and EPA(20:5n-3)). […] GLA elongase was able to convert 73% of STA to 20:4n-3 (FIG. 25).

[2] = test system: S. cerevisiae 334; assay: Co-expression of GLELO and M. alpina Δ5-desaturase in yeast
Description: Once DGLA (20:3n-6) is produced by the GLA elongase, the Δ5-desaturase can convert it to AA (20:4n-6) in a desired co-expression system. […] Therefore, the GLA elongase has the ability to work with other enzymes in the n-6 PUFA synthetic pathway to produce desirable fatty acids.
To determine whether the above conversion is also true in n-3 pathways, the similar co-expression experiments were carried out in the presence of 25 μM STA. Again, if both enzymes are expressed, the STA substrate will be converted to 20:4n-3 which will then be converted to EPA (20:5n-3) by the Δ5-desaturase.

[3] = test system: S. cerevisiae 334; assay: C. elegans elongase CEELO1 activity in yeast
Description: The plasmids pRET-21 and -22 were transformed into S. cerevisiae 334 as previously described (see Example III) and the resulting yeast cultures (334(pRET-21) and 334(pRET-22)) grown in 100 ml of selective media without leucine (Ausubel et al, supra) for 48 hours at 20° C. in the presence of 50 μM GLA and AA. […] The percent conversion of GLA to DGLA by 334(pRET-21) and 334(pRET-22) was 11.1% and 19.4% respectively with an average of 15.25%.
To further confirm the GLA elongation activity of CEELO1, the experiment described in the paragraphs above was repeated with the exception that GLA and AA were added to cultures of 334(pRET-22) separately. […] In this case, the percent conversion appears to be double that described in previous results (see FIG. 48) and may either be due to the absence of the additional substrate (AA) or the subculturing of the yeast.
Additionally, to further determine the substrate specificity of CEELO1, 50 μM of each substrate besides GLA (e.g., SA (18:0), OA (18:1), LA (18:2n-6), DGLA (20:3n-g), AA ([…]), ADA (22:4n-6), ALA (18:3n-3), PA ([…]), EPA (20:5n-3) and STA ([…])) was added individually to cultures of 334(pRET-22) and grown for 48 hours at 20° C., as described in Example XVII. […] The CEELO1 elongated 13% of STA incorporated to ETA (20:4n-3)(see FIG. 62).

[4] = test system: yeast; assay: Co-expression of CEELO1 and M. alpina Δ5 desaturase in yeast; conditions: pRET22 and pCGR4 co-expressed, FIG. 63
Description: Parallel to Examples III and XI, the C. elegans CEELO1 gene in the plasmid pRET22 and M. alpina Δ5 desaturase (pCGR-4; see Example III) were co-expressed in yeast to determine if AA or EPA could be produced from exogenously added GLA or STA, respectively. When a yeast culture containing both pRET22 and pCGR4 plasmids was grown in the presence of 50 μM GLA or STA in media lacking leucine and uracil, the percent conversion to the final products of AA and EPA, respectively, appeared identical (27% conversion)(see FIG. 63). Thus, simultaneous heterologous expression of CEEL01 and a Δ5 desaturase results in the biosynthesis of AA and EPA from GLA and STA, respectively in yeast.

[5] = 50 μM GLA and AA together, 48 hours at 20° C., FIG. 48
[6] = GLA and AA added separately, FIG. 61

Molecule | average conversion of GLA to DGLA ([1]; 25 μM GLA, four independent cultures, FIG. 24) [%] | utilization of other substrates SA, OA, LA, AA, ADA, ALA, STA, EPA ([1]; identical assay conditions) | conversion of STA to 20:4n-3 ([1]; substrate STA, FIG. 25) [%] | average conversion of GLA to AA ([2]; 25 μM GLA, co-expressed with Δ5-desaturase (pRPE31), FIG. 26A) [%] | production of EPA ([2]; 25 μM STA, co-expressed with Δ5-desaturase, FIG. 26B) | DGLA, average of the total lipid in the two samples [3, 5] [%] | percent conversion of GLA to DGLA [3, 5] [%] | elongation of AA or any endogenous fatty acid ([3]; 50 μM GLA and AA together, FIG. 48) | STA incorporated elongated to ETA (20:4n-3) ([3]; 50 μM STA, 48 hours at 20° C., FIG. 62) [%] | elongation of other exogenously added substrates (SA, OA, LA, DGLA, AA, ADA, ALA, PA, EPA, STA) ([3]; 50 μM of each substrate individually, FIG. 62) | conversion rate of GLA to DGLA [3, 6] [%] | elongation activity of AA [3, 6] | average percent conversion of GLA to DGLA ([3]; average of 334(pRET-21) and 334(pRET-22), 50 μM GLA and AA together) [%] | conversion rate of endogenous 16:1n-7 to 18:1n-7 ([3]; endogenous substrate) [%] | percent conversion of GLA to final product AA ([4]; 50 μM GLA) [%] | percent conversion of STA to final product EPA ([4]; 50 μM STA) [%]
B1 | 62 | the only other substrate utilized by the elongase enzyme was STA | 73 | 27 | approx. 40% |  |  |  |  |  |  |  |  |  |  | 
B2 |  |  |  |  |  | 1.79 | 19.4 | almost no elongation | 13 | STA was the only exogenously added substrate that was elongated | 38.2 | No elongation activity of AA was detected | 15.25 | 9.12 | 27 | 27
